One substance from publication PMC12732409 can be followed below.

The assay addresses hyaluronidase from bovine testes (bovine).

“NGT-M002 (pvFP-5; Perna viridis foot protein-5) (natural protein)” came in with a hyaluronidase inhibition rate (enzyme activity on hyaluronic acid, absorbance at 600 nm) at 500 μM sample, 1 U/mL hyaluronidase of 91%.
